# Results as given in patent publication US20140120113A1.
# Tests used:
# Assay in all cases: cell-based or functional assay
# [1] = target: HA of influenza virus A/Ck/HK/SSP176/09 (H9) (Influenza A virus A/Chick/HK/SSP176/09 (H9))
# [2] = target: HA of influenza virus A/Panama/2007/1999 (H3) (Influenza A virus A/Panama/2007/1999 (H3))
# [3] = target: HA of influenza virus A/Chick/Germany/N/49 (H10) (Influenza A virus A/Chick/Germany/N/49 (H10)) (UniProt P12581)
# [4] = target: HA of influenza virus A/EW/MPH571/08 (H8) (Influenza A virus A/Eurasian Wigeon/MPH571/08 (H8))
# [5] = target: HA of influenza virus A/Hiroshima/52/2005 (H3) (Influenza A virus A/Hiroshima/52/2005 (H3))
# [6] = target: HA of influenza virus A/Johannesburg/33/94 (H3) (Influenza A virus A/Johannesburg/33/94 (H3))
# [7] = target: HA of influenza virus A/Env/MPU3156/05 (H2) (Influenza A virus A/Env/MPU3156/05 (H2))
# [8] = target: HA of influenza virus A/EW/MPD411/07 (H6) (Influenza A virus A/Eurasian Wigeon/MPD411/07 (H6))
# [9] = target: HA of influenza virus A/Hong Kong/1073/99 (H9) (Influenza A virus A/Hong Kong/1073/99 (H9))
# [10] = target: HA of influenza virus A/Brisbane/59/2007 (H1) (Influenza A virus A/Brisbane/59/2007 (H1))
# [11] = target: HA of influenza virus A/EW/MPF461/07 (H5) (Influenza A virus A/Eurasian Wigeon/MPF461/07 (H5))
# [12] = target: HA of influenza virus A/Brisbane/10/2007 (H3) (Influenza A virus A/Brisbane/10/2007 (H3))
# [13] = target: HA of influenza virus A/Hong Kong/1/68 (H3) (Influenza A virus A/Hong Kong/1/68 (H3)) (UniProt Q91MA7)
# [14] = target: HA of influenza virus A/WF/MPA 892/06 (H4) (Influenza A virus A/WF/HK/MPA892/06 (H4))
# Sequence of UniProt P12581 (P12581 17-561 limits assumed): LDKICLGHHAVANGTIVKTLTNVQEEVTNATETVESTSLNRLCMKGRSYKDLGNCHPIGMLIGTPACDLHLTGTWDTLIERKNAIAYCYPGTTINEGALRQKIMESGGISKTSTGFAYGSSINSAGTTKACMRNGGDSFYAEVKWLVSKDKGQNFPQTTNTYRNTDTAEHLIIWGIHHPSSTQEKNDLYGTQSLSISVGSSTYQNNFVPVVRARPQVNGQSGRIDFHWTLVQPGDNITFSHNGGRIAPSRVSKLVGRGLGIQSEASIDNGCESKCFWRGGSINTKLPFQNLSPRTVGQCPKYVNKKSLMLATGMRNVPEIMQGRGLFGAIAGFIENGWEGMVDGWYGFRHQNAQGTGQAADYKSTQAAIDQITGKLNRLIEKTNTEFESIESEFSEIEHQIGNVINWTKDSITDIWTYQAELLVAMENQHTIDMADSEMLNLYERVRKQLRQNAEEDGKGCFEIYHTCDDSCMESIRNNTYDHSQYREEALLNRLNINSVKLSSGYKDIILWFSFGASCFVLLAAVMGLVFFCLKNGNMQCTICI
substance,measurement,setting,value
CR9114 (antibody),"geomean IC50, virus neutralization assay (VNA)",[1],6.3 µg/mL
same,"geomean IC50, virus neutralization assay (VNA)",[2],39.9 µg/mL
same,"geomean IC50, virus neutralization assay (VNA)",[3],15.7 µg/mL
same,"geomean IC50, virus neutralization assay (VNA)",[4],8.8 µg/mL
same,"geomean IC50, virus neutralization assay (VNA)",[5],12.5 µg/mL
same,"geomean IC50, virus neutralization assay (VNA)",[6],21.9 µg/mL
same,"geomean IC50, virus neutralization assay (VNA)",[7],8.8 µg/mL
same,"geomean IC50, virus neutralization assay (VNA)",[8],10.5 µg/mL
same,"geomean IC50, virus neutralization assay (VNA)",[9],4.4 µg/mL
same,"geomean IC50, virus neutralization assay (VNA)",[10],2.6 µg/mL
same,"geomean IC50, virus neutralization assay (VNA)",[11],10.5 µg/mL
same,"geomean IC50, virus neutralization assay (VNA)",[12],5.6 µg/mL
same,"geomean IC50, virus neutralization assay (VNA)",[13],19 µg/mL
same,"geomean IC50, virus neutralization assay (VNA)",[14],0.8 µg/mL
